The subject of the experiment is mouse BRS3 (mBRS3). The experiment is described as follows: Luciferase reporter, constitutive activity (WT, mutants, truncated; with/without inhibitor). In kind it is cell-based. Details: key to constitutive luciferase activity: fold over pcDNA-transfected blank control (blank = 1). The conditions noted are these: for luciferase, CRE / luciferase, NFAT / luciferase, SRE / luciferase, SRF: Blank = 1; for constitutive luciferase activity: no ligand; for CRE luciferase reporter activity relative to Blank (Blank = 1) / NFAT luciferase reporter activity relative to Blank (Blank = 1) / SRF luciferase reporter activity relative to Blank (Blank = 1): constitutive, full-length mBRS3 and truncated N-mBRS3. As for the experimental part: To detect constitutive activity of BRS3, HEK293 cells were seeded in 24-well plates and cotransfected with the CRE/NFAT-RE/SRF-RE/SRE luciferase reporter plasmids (50 ng), the BRS3 from different species, or BRS3 mutants with different doses (10 ng/50 ng/150 ng); after 24 h, cells were further incubated in serum-free media for another 12 h before luciferase assay. As for peptide supplementation treatment, HEK293 cells were cotransfected with the CRE/NFAT-RE/SRF-RE/SRE luciferase reporter plasmids (50 ng) and various genes (300 ng) of the bombesin receptor family. […] Luciferase activities were determined using luciferase assay kits (Beyotime, Shanghai, China) and normalized to β-galactosidase activity. All experiments were performed at least three times in triplicates. HEK293 cells transfected with pcDNA were used as a blank control in all luciferase experiments, and the fold was calculated compared to blank control.
On the technique in general: A reporter such as luciferase makes a cellular process visible.

B1: mouse (protein, UniProt O54798 1-399, looked up)
Bombesin receptor subtype-3: MSQRQSQSPNQTLISITNDTETSSSVVSNDTTHKGWTGDNSPGIEALCAIYITYAGIISVGILGNAILIKVFFKTKSMQTVPNIFITSLAFGDLLLLLTCVPVDATHYLAEGWLFGKVGCKVLSFIRLTSVGVSVFTLTILSADRYKAVVKPLERQPPNAILKTCAKAGGIWIVSMIFALPEAIFSNVYTFQDPNRNVTFESCNSYPISERLLQEIHSLLCFLVFYIIPLSIISVYYSLIARTLYKSTLNIPTEEQSHARKQIESRKRIAKTVLVLVALFALCWLPNHLLYLYHSFTYESYANHSDVPFVIIIFSRVLAFSNSCVNPFALYWLSKTFQQHFKAQLCCLKAEQPEPPLGDIPLNNLTVMGRVPATGSAHVSEISVTLFSGSSAKKGEDKV
B1: under “value 1 of 3”, the “luciferase, CRE” value came to 19.4537; the “luciferase, NFAT” value was found to be 19.0254; the “luciferase, SRE” value was found to be 1.5624; the “luciferase, SRF” value came out at 20.3125. For the same molecule, under “value 2 of 3”, the “luciferase, CRE” value was 18.5759; the “luciferase, NFAT” value worked out at 18.2536; the “luciferase, SRE” value is reported as 1.4021; the “luciferase, SRF” value was determined as 21.0453. Moreover, under “value 3 of 3”, the “luciferase, NFAT” value came to 18.6395; the “luciferase, SRE” value worked out at 1.4823; the “luciferase, SRF” value worked out at 20.6789.

B2: mBRS3-Q339A (protein, UniProt O54798 1-399, looked up, variant Q339A)
Bombesin receptor subtype-3: MSQRQSQSPNQTLISITNDTETSSSVVSNDTTHKGWTGDNSPGIEALCAIYITYAGIISVGILGNAILIKVFFKTKSMQTVPNIFITSLAFGDLLLLLTCVPVDATHYLAEGWLFGKVGCKVLSFIRLTSVGVSVFTLTILSADRYKAVVKPLERQPPNAILKTCAKAGGIWIVSMIFALPEAIFSNVYTFQDPNRNVTFESCNSYPISERLLQEIHSLLCFLVFYIIPLSIISVYYSLIARTLYKSTLNIPTEEQSHARKQIESRKRIAKTVLVLVALFALCWLPNHLLYLYHSFTYESYANHSDVPFVIIIFSRVLAFSNSCVNPFALYWLSKTFQAHFKAQLCCLKAEQPEPPLGDIPLNNLTVMGRVPATGSAHVSEISVTLFSGSSAKKGEDKV
As to B2, the constitutive luciferase activity turned out to be 15.5479 (SRF, mean); 16.2185 (SRF, replicate 1); 14.8773 (SRF, replicate 2).

B3: mBRS3-R268A (protein, UniProt O54798 1-399, looked up, variant R268A)
Bombesin receptor subtype-3: MSQRQSQSPNQTLISITNDTETSSSVVSNDTTHKGWTGDNSPGIEALCAIYITYAGIISVGILGNAILIKVFFKTKSMQTVPNIFITSLAFGDLLLLLTCVPVDATHYLAEGWLFGKVGCKVLSFIRLTSVGVSVFTLTILSADRYKAVVKPLERQPPNAILKTCAKAGGIWIVSMIFALPEAIFSNVYTFQDPNRNVTFESCNSYPISERLLQEIHSLLCFLVFYIIPLSIISVYYSLIARTLYKSTLNIPTEEQSHARKQIESRKAIAKTVLVLVALFALCWLPNHLLYLYHSFTYESYANHSDVPFVIIIFSRVLAFSNSCVNPFALYWLSKTFQQHFKAQLCCLKAEQPEPPLGDIPLNNLTVMGRVPATGSAHVSEISVTLFSGSSAKKGEDKV
Consider B3, for which the constitutive luciferase activity reads like this: (SRF, mean) 19.8563; (SRF, replicate 1) 19.1647; (SRF, replicate 2) 20.5479.

B4: mBRS3-F337A (protein, UniProt O54798 1-399, looked up, variant F337A)
Bombesin receptor subtype-3: MSQRQSQSPNQTLISITNDTETSSSVVSNDTTHKGWTGDNSPGIEALCAIYITYAGIISVGILGNAILIKVFFKTKSMQTVPNIFITSLAFGDLLLLLTCVPVDATHYLAEGWLFGKVGCKVLSFIRLTSVGVSVFTLTILSADRYKAVVKPLERQPPNAILKTCAKAGGIWIVSMIFALPEAIFSNVYTFQDPNRNVTFESCNSYPISERLLQEIHSLLCFLVFYIIPLSIISVYYSLIARTLYKSTLNIPTEEQSHARKQIESRKRIAKTVLVLVALFALCWLPNHLLYLYHSFTYESYANHSDVPFVIIIFSRVLAFSNSCVNPFALYWLSKTAQQHFKAQLCCLKAEQPEPPLGDIPLNNLTVMGRVPATGSAHVSEISVTLFSGSSAKKGEDKV
B4: the constitutive luciferase activity is, setting by setting: (SRF, mean) 15.0321; (SRF, replicate 1) 15.1183; (SRF, replicate 2) 14.946.

B5: mBRS3 (protein)
chain: MSQRQSQSPNQTLISITNDTETSSSVVSNDTTHKGWTGDNSPGIEALCAIYITYAGIISVGILGNAILIKVFFKTKSMQTVPNIFITSLAFGDLLLLLTCVPVDATHYLAEGWLFGKVGCKVLSFIRLTSVGVSVFTLTILSADRYKAVVKPLERQPPNAILKTCAKAGGIWIVSMIFALPEAIFSNVYTFQDPNRNVTFESCNSYPISERLLQEIHSLLCFLVFYIIPLSIISVYYSLIARTLYKSTLNIPTEEQSHARKQIESRKRIAKTVLVLVALFALCWLPNHLLYLYHSFTYESYANHSDVPFVIIIFSRVLAFSNSCVNPFALYWLSKTFQQHFKAQLCCLKAEQPEPPLGDIPLNNLTVMGRVPATGSAHVSEISVTLFSGSSAKKGEDKV
modifications: left off: V5 (from the vector pcDNA3.1-V5-His), end not stated, state not stated | His tag (from the vector pcDNA3.1-V5-His), end not stated, state not stated
In the case of B5, the “CRE luciferase reporter activity relative to Blank (Blank = 1)” value was determined as 16.331 (CRE, replicate 1); 17.4509 (CRE, replicate 2); 16.8909 (CRE, third line, unlabelled, equals mean of the two replicates). In addition, the constitutive luciferase activity by setting is: (CRE, mean) 17.9436; (CRE, replicate 1) 17.8927; (CRE, replicate 2) 17.9945; (SRF, mean) 20.9426; (SRF, replicate 1) 19.9659; (SRF, replicate 2) 21.9194. The “NFAT luciferase reporter activity relative to Blank (Blank = 1)” value is listed as 16.9181 (replicate 1); 16.5656 (replicate 2); 16.7418 (third line, unlabelled, equals mean of the two replicates). Moreover, the “SRF luciferase reporter activity relative to Blank (Blank = 1)” value (SRF, replicate 1) came out at 18.8375; the “SRF luciferase reporter activity relative to Blank (Blank = 1)” value (SRF, replicate 2) is reported as 17.9845; the “SRF luciferase reporter activity relative to Blank (Blank = 1)” value (SRF, third line, unlabelled, equals mean of the two replicates) worked out at 18.411.

B6: mBRS3-A270I (protein, UniProt O54798 1-399, looked up, variant A270I)
Bombesin receptor subtype-3: MSQRQSQSPNQTLISITNDTETSSSVVSNDTTHKGWTGDNSPGIEALCAIYITYAGIISVGILGNAILIKVFFKTKSMQTVPNIFITSLAFGDLLLLLTCVPVDATHYLAEGWLFGKVGCKVLSFIRLTSVGVSVFTLTILSADRYKAVVKPLERQPPNAILKTCAKAGGIWIVSMIFALPEAIFSNVYTFQDPNRNVTFESCNSYPISERLLQEIHSLLCFLVFYIIPLSIISVYYSLIARTLYKSTLNIPTEEQSHARKQIESRKRIIKTVLVLVALFALCWLPNHLLYLYHSFTYESYANHSDVPFVIIIFSRVLAFSNSCVNPFALYWLSKTFQQHFKAQLCCLKAEQPEPPLGDIPLNNLTVMGRVPATGSAHVSEISVTLFSGSSAKKGEDKV
B6 yielded a constitutive luciferase activity (SRF, mean) of 14.9649; a constitutive luciferase activity (SRF, replicate 1) of 15.7177; a constitutive luciferase activity (SRF, replicate 2) of 14.2121.

Values taken from article PMC6422423, “Constitutively active BRS3 is a genuinely orphan GPCR in placental mammals” (PLoS Biology, 2019).
